From publication PMC10718073 (Chemical Science, 2023) come the findings set out here.

What is called stoichiometry N is the number of molecules, sites or subunits per partner or assembly.

Assay in all cases: native MS
Data set [1] concerns the target AqpZ with C-terminal fusion to the green fluorescent protein (Escherichia coli) (UniProt P60844).
The target in data set [2] is AmtB from Escherichia coli (Escherichia coli) (UniProt P69681).
Data set [3] deals with the molecule itself.
Data set [4] concerns the molecule itself. The source holds these as a separate data set.

Consider “AqpZ with C-terminal fusion to the green fluorescent protein (from UniProt P60844 1-231) (natural protein)”, for which the stoichiometry N in data set [1] turned out to be 4.

For the molecule “AmtB from Escherichia coli (from UniProt P69681 23-428) (natural protein)”, in data set [2], the stoichiometry N was found to be 3.

B1: TREK2, residues 55-335 with T58A (domain or fragment)
chain: MEGASQGGLQTVMKWKTVVAIFVVVVVYLVTGGLVFRALEQPFESSQKNTIALEKAEFLRDHVCVSPQELETLIQHALDADNAGVSPIGNSSNNSSHWDLGSAFFFAGTVITTIGYGNIAPSTEGGKIFCILYAIFGIPLFGFLLAGIGDQLGTIFGKSIARVEKVFRKKQVSQTKIRVISTILFILAGCIVFVTIPAVIFKYIEGWTALESIYFVVVTLTTVGFGDFVAGGNAGINYREWYKPLVWFWILVGLAYFAAVLSMIGDWLRVLSKKTKEEVGE
modifications: glycans, treated with EndoH to reduce the glycan heterogeneity
B1: the binding result in the data set “native MS [3]” is given as “binds”.

B2: TRAAK (K2p4.1b), residues 1-290 with N104Q and N108Q (domain or fragment)
chain: MTTAPQEPPARPLQAGSGAGPAPGRAMRSTTLLALLALVLLYLVSGALVFRALEQPHEQQAQRELGEVREKFLRAHPCVSDQELGLLIKEVADALGGGADPETQSTSQSSHSAWDLGSAFFFSGTIITTIGYGNVALRTDAGRLFCIFYALVGIPLFGILLAGVGDRLGSSLRHGIGHIEAIFLKWHVPPELVRVLSAMLFLLIGCLLFVLTPTFVFCYMEDWSKLEAIYFVIVTLTTVGFGDYVAGADPRQDSPAYQPLVWFWILLGLAYFASVLTTIGNWLRVVSRRT
Regarding B2, the “stoichiometry N” value in “native MS [4]” was determined as 2.
